B1: STAT5A (S5; hyperactive variant cS5): T92A (protein)
parent chain: MAGWIQAQQLQGDALRQMQVLYGQHFPIEVRHYLAQWIESQPWDAIDLDNPQDRGQATQLLEGLVQELQKKAEHQVGEDGFLLKIKLGHYATQLQNTYDRCPMELVRCIRHILYNEQRLVREANNCSSPAGVLVDAMSQKHLQINQRFEELRLITQDTENELKKLQQTQEYFIIQYQESLRIQAQFAQLGQLNPQERMSRETALQQKQVSLETWLQREAQTLQQYRVELAEKHQKTLQLLRKQQTIILDDELIQWKRRQQLAGNGGPPEGSLDVLQSWCEKLAEIIWQNRQQIRRAEHLCQQLPIPGPVEEMLAEVNATITDIISALVTSTFIIEKQPPQVLKTQTKFAATVRLLVGGKLNVHMNPPQVKATIISEQQAKSLLKNENTRNECSGEILNNCCVMEYHQATGTLSAHFRNMSLKRIKRADRRGAESVTEEKFTVLFESQFSVGSNELVFQVKTLSLPVVVIVHGSQDHNATATVLWDNAFAEPGRVPFAVPDKVLWPQLCEALNMKFKAEVQSNRGLTKENLVFLAQKLFNISSNHLEDYNSMSVSWSQFNRENLPGWNYTFWQWFDGVMEVLKKHHKPHWNDGAILGFVNKQQAHDLLINKPDGTFLLRFSDSEIGGITIAWKFDSPDRNLWNLKPFTTRDFSIRSLADRLGDLNYLIYVFPDRPKDEVFAKYYTPVLAKAVDGYVKPQIKQVVPEFVNASTDAGASATYMDQAPSPVVCPQPHYNMYPPNPDPVLDQDGEFDLDESMDVARHVEELLRRPMDSLDARLSPPAGLFTSARSSLS
B2: STAT5A (S5; hyperactive variant cS5): cS5-T92A (protein)
parent chain: MAGWIQAQQLQGDALRQMQVLYGQHFPIEVRHYLAQWIESQPWDAIDLDNPQDRGQATQLLEGLVQELQKKAEHQVGEDGFLLKIKLGHYATQLQNTYDRCPMELVRCIRHILYNEQRLVREANNCSSPAGVLVDAMSQKHLQINQRFEELRLITQDTENELKKLQQTQEYFIIQYQESLRIQAQFAQLGQLNPQERMSRETALQQKQVSLETWLQREAQTLQQYRVELAEKHQKTLQLLRKQQTIILDDELIQWKRRQQLAGNGGPPEGSLDVLQSWCEKLAEIIWQNRQQIRRAEHLCQQLPIPGPVEEMLAEVNATITDIISALVTSTFIIEKQPPQVLKTQTKFAATVRLLVGGKLNVHMNPPQVKATIISEQQAKSLLKNENTRNECSGEILNNCCVMEYHQATGTLSAHFRNMSLKRIKRADRRGAESVTEEKFTVLFESQFSVGSNELVFQVKTLSLPVVVIVHGSQDHNATATVLWDNAFAEPGRVPFAVPDKVLWPQLCEALNMKFKAEVQSNRGLTKENLVFLAQKLFNISSNHLEDYNSMSVSWSQFNRENLPGWNYTFWQWFDGVMEVLKKHHKPHWNDGAILGFVNKQQAHDLLINKPDGTFLLRFSDSEIGGITIAWKFDSPDRNLWNLKPFTTRDFSIRSLADRLGDLNYLIYVFPDRPKDEVFAKYYTPVLAKAVDGYVKPQIKQVVPEFVNASTDAGASATYMDQAPSPVVCPQPHYNMYPPNPDPVLDQDGEFDLDESMDVARHVEELLRRPMDSLDARLSPPAGLFTSARSSLS
B3: STAT5A (S5; hyperactive variant cS5): S5-T92A (protein)
parent chain: MAGWIQAQQLQGDALRQMQVLYGQHFPIEVRHYLAQWIESQPWDAIDLDNPQDRGQATQLLEGLVQELQKKAEHQVGEDGFLLKIKLGHYATQLQNTYDRCPMELVRCIRHILYNEQRLVREANNCSSPAGVLVDAMSQKHLQINQRFEELRLITQDTENELKKLQQTQEYFIIQYQESLRIQAQFAQLGQLNPQERMSRETALQQKQVSLETWLQREAQTLQQYRVELAEKHQKTLQLLRKQQTIILDDELIQWKRRQQLAGNGGPPEGSLDVLQSWCEKLAEIIWQNRQQIRRAEHLCQQLPIPGPVEEMLAEVNATITDIISALVTSTFIIEKQPPQVLKTQTKFAATVRLLVGGKLNVHMNPPQVKATIISEQQAKSLLKNENTRNECSGEILNNCCVMEYHQATGTLSAHFRNMSLKRIKRADRRGAESVTEEKFTVLFESQFSVGSNELVFQVKTLSLPVVVIVHGSQDHNATATVLWDNAFAEPGRVPFAVPDKVLWPQLCEALNMKFKAEVQSNRGLTKENLVFLAQKLFNISSNHLEDYNSMSVSWSQFNRENLPGWNYTFWQWFDGVMEVLKKHHKPHWNDGAILGFVNKQQAHDLLINKPDGTFLLRFSDSEIGGITIAWKFDSPDRNLWNLKPFTTRDFSIRSLADRLGDLNYLIYVFPDRPKDEVFAKYYTPVLAKAVDGYVKPQIKQVVPEFVNASTDAGASATYMDQAPSPVVCPQPHYNMYPPNPDPVLDQDGEFDLDESMDVARHVEELLRRPMDSLDARLSPPAGLFTSARSSLS

Experiments:
[1] = oligomer EMSA, 293T, loading adapted to STAT5 activity; conditions: glycan lost; control: constructs without T92A
[2] = total STAT5 immunoblot, Ba/F3; conditions: glycan lost; control: cS5
[3] = phospho-serine immunoblot, Ba/F3; conditions: glycan lost; control: cS5
[4] = pYSTAT5 immunoblot, Ba/F3 cells ± IL-3; conditions: glycan lost; control: cS5
[5] = immunoblot, 293T with EpoR, EPO stimulation; conditions: glycan lost; control: matching construct without T92A (S5, cS5)
[6] = pYSTAT5 immunoblot time course after IL-3 withdrawal, Ba/F3; conditions: glycan lost; control: cS5

Protein | oligomerisation [1] | expression_or_secretion [2] | other: serine 725/779 phosphorylation [3] | other: tyrosine phosphorylation (pYSTAT5) [4] | other: tyrosine phosphorylation (pYSTAT5) [5] | other: persistence of tyrosine phosphorylation [6]
B1 | no change |  |  |  |  | 
B2 |  | no change | no change | decreases | no change | decreases
B3 |  |  |  |  | no change | 

From publication PMC5629373
